A word on the Kd: it is the constant that tells how readily two partners part at equilibrium. The low end stands for a tighter complex, the high end for a looser complex.

The values that follow come from article PMC8650758 (Cell reports, 2021).

Changes are numbered by the printed parent chain. Names may count otherwise.

Assay [1] deals with T1, DWnt-5(455-1004) (D. melanogaster, UniProt P28466 455-1004, glycosylated at N484/485, N724 and N952; S868 unmodified (not lipid modified)).
T1 sequence (looked up): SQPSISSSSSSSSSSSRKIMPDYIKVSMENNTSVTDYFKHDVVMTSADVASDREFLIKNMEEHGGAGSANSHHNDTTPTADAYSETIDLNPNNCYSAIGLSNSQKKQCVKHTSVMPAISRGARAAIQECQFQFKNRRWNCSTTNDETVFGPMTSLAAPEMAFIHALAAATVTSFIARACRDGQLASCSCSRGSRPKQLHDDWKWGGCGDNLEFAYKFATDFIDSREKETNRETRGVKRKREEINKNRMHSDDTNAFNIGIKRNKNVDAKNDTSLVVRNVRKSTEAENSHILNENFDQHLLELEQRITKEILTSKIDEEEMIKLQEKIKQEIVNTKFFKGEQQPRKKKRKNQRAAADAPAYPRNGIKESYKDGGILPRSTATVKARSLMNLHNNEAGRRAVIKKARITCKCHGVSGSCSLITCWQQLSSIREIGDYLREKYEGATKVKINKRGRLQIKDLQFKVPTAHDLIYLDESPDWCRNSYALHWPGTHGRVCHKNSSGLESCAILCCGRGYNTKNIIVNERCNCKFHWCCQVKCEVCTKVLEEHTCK
Nature of the assay: pull-down.

The target of assay [2] is T1, DWnt-5(455-1004). Nature of the assay: SPR. Background: In SPR one partner is held on a chip, and binding of the other changes the refractive index at the surface.

B1: sDrl183 (Drl WIF domain) (domain or fragment, D. melanogaster, UniProt Q27324 21-183, looked up)
chain: HLNIFLNLHEVLRLIGVSAELYYVREGAINDYALNFAVPVPANISDVTFTWQSLVDHPLPYSINIATSDTEVLPRPILNISRIGDVPVEPQTWGIALKCSGTRNAEVTVTINVEVILDRATNNNTNLIFKRKKICLREEQDSAHEEYDDDDLDLLQTARKGHG
Turning to B1, the binding result with DWnt-5(455-1004) [1] is given as “binds”.

B2: sDnt (Dnt ECR) (domain or fragment, D. melanogaster)
chain: SEVAAHLNVFLNPVEVMRLLGVSAEVYYVREGHINNYALNFIVPVPANVKDISFTWQSLAGRGLPYSINVVSSDQEVLPRPAINVSHSGEIPTTIQTWSIALKCSGLKAAEVDVTVSLEVVLNRSLNNVTHLVFRRKKICLMNDSAEDLSEDVDDPQLLETVMLPPTGRPLESRGPFEGKPIPNPLLGLDSTRTG
Regarding B2, the “fold weaker binding than the Drl and Drl-2 ECRs” value with DWnt-5(455-1004) [2] was around 10 fold.

B3: sDrl242 E40K (domain or fragment, D. melanogaster, UniProt Q27324 21-242, looked up)
chain: HLNIFLNLHEVLRLIGVSAKLYYVREGAINDYALNFAVPVPANISDVTFTWQSLVDHPLPYSINIATSDTEVLPRPILNISRIGDVPVEPQTWGIALKCSGTRNAEVTVTINVEVILDRATNNNTNLIFKRKKICLREEQDSAHEEYDDDDLDLLQTARKGHGGDIHYVDRNDEHVVANGHQAPEKQRPVVTESPVGRGNSGGSKRDFDPMLRENLVPPASG
For B3, the “fold reduction of affinity against wild-type sDrl242” value in the assay with DWnt-5(455-1004) [2] is around 10 fold.

B4: sDrl242 (Drl ECR) (domain or fragment, D. melanogaster, UniProt Q27324 21-242, looked up)
chain: B3 chain with K20E
Turning to B4, in the assay with DWnt-5(455-1004) [2], the affinity, expressed as Kd, was 0.72 µM.

B5: sDrl242 I154E (domain or fragment, D. melanogaster, UniProt Q27324 21-242, looked up)
chain: B3 chain with K20E, I134E
Turning to B5, the binding result with DWnt-5(455-1004) [2] is listed as “binds”.

B6: sDrl242 E126K (domain or fragment, D. melanogaster, UniProt Q27324 21-242, looked up)
chain: B3 chain with K20E, E106K
As to B6, the binding result with DWnt-5(455-1004) [2] is reported as “binds”.

B7: sDrl-2 (Drl-2 ECR) (domain or fragment, D. melanogaster)
chain: GYLNIFISHHEVMKLMGLEADLFYVHEGAINTYAMHFTVPVPADVHELEFSWQSLIAYPLPYAISIEYNNDQEALGTPTLSIPHKGLVPQEIESFLVYLPCTGNASLQMPVNVNMVVRAPPRFNDTRLHFKRNKICAKGISPEPNQSPAPAHAPSQGPARPLESRGPFEGKPIPNPLLGLDSTRTG
B7 yielded a Kd with DWnt-5(455-1004) [2] of 0.23 µM.
